Legend:
EGFP-vinculin = EGFP-vinculin (UniProt P18206); assay: FRET or BRET
mTFP1-vinculin = mTFP1-vinculin (UniProt P18206); assay: FRET or BRET

Row | FRET efficiency (EGFP-vinculin) | FRET efficiency (mTFP1-vinculin) | Substance
1 | 13.5 |  | RIAM-mScarlet (RIAM C-terminally tagged with mScarlet-I) (from UniProt Q7Z5R6 1-666) (natural protein)
2 | 16.4 | 20% | mScarlet-RIAM (RIAM N-terminally tagged with mScarlet-I) (from UniProt Q7Z5R6 1-666) (natural protein)

Reference: article doi:10.1101/2025.03.04.641466
